The results in this text go back to patent publication US20220119789A1.

In the experiment the target is Trx-VL(NP)-GUS(IV-5)KW (Escherichia coli). The experiment is described as follows: cell-based or functional assay.

On to PentaHis antibody (QIAGEN), for which the average S/B ratio in 11 minutes after the beginning of reaction (GUS activity) came to 13 and the average S/B ratio in 20 minutes after the beginning of reaction (GUS activity) turned out to be 42.3.
